Assay results taken from patent publication US20230183713A1, “SITE-SPECIFIC RECOMBINASES FOR EFFICIENT AND SPECIFIC GENOME EDITING” (TECHNISCHE UNIVERSITÄt DRESDEN, published 2023).

Columns and labels:
[1] = target: T1, Cre recombinase monomer with Y324L mutation
T1 chain: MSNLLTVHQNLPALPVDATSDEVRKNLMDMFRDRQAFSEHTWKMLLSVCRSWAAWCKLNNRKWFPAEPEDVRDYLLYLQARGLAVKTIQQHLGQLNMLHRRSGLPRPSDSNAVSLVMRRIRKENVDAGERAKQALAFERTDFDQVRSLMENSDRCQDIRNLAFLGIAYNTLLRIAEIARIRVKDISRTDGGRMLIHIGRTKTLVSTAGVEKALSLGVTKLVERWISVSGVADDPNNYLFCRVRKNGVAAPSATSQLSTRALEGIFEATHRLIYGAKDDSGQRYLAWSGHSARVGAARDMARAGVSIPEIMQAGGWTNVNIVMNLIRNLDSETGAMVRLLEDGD

[2] = target: T2, Cre recombinase monomer with W315I mutation
T2 chain: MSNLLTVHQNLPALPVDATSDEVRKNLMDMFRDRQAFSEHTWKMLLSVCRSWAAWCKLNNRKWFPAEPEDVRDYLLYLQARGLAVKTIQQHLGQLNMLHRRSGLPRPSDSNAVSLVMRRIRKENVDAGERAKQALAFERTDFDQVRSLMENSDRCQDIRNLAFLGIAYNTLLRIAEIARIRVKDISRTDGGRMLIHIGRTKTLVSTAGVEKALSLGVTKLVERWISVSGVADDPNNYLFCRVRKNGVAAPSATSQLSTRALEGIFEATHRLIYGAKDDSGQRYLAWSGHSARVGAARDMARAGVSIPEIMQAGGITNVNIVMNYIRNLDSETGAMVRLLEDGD

[3] = target: T3, Cre recombinase monomer with Y324T mutation
T3 chain: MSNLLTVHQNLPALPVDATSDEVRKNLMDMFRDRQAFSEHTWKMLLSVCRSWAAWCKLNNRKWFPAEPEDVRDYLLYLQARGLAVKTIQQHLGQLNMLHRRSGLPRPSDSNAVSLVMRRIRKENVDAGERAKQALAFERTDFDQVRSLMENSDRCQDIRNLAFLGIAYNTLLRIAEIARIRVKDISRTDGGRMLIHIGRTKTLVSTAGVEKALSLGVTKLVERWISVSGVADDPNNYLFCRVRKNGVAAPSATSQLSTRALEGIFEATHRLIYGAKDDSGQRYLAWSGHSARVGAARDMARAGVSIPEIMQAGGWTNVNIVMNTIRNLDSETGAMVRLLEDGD

[4] = target: T4, Cre recombinase monomer with Y324N mutation
T4 chain: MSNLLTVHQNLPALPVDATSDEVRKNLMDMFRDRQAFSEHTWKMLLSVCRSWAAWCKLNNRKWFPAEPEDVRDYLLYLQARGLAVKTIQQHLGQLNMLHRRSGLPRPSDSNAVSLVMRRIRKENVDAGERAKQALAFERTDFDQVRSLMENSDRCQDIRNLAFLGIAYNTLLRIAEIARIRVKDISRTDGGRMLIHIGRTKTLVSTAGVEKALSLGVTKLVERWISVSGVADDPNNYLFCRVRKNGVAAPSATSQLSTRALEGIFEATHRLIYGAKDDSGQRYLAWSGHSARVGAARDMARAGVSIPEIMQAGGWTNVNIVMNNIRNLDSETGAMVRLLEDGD

[5] = target: T5, Cre recombinase monomer with Y324C mutation
T5 chain: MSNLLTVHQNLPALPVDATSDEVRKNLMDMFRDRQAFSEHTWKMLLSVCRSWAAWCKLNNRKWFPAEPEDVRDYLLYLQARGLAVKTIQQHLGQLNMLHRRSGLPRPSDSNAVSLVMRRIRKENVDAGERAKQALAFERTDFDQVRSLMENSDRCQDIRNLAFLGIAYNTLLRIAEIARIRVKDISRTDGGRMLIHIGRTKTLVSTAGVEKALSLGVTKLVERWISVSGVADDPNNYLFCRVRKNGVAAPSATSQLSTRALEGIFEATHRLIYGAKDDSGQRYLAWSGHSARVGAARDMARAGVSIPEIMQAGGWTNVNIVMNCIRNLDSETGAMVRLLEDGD

[6] = target: T6, Cre recombinase monomer with W315T mutation
T6 chain: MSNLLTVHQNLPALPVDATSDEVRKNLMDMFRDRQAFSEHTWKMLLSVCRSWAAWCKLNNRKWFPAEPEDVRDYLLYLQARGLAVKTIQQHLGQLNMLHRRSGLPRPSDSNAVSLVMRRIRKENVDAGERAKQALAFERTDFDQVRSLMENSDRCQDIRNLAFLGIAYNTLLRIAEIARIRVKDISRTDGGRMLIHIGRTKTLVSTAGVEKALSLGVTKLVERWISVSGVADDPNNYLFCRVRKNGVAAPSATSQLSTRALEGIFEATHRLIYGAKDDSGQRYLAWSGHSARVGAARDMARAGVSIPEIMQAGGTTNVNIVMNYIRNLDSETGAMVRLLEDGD

[7] = target: T7, Cre recombinase monomer with Y324M mutation
T7 chain: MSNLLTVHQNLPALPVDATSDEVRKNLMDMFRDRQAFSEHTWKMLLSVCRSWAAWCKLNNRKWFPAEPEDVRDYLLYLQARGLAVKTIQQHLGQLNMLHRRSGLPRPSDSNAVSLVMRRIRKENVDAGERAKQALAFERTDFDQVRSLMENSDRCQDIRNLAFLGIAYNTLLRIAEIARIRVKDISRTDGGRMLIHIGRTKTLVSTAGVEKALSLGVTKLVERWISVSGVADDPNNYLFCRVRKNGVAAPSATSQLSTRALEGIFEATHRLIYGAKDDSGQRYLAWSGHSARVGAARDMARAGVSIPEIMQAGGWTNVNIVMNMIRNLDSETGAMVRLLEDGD

[8] = target: T8, Cre recombinase monomer with Y324R mutation
T8 chain: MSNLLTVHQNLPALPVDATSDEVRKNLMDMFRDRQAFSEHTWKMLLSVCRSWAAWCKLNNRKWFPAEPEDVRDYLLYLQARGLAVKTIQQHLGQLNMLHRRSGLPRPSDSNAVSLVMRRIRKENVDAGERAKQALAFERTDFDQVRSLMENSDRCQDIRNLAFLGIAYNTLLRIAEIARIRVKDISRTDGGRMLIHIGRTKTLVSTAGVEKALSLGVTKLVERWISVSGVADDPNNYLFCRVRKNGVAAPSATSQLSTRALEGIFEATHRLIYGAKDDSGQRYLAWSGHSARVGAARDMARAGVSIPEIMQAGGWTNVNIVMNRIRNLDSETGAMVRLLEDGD

B1: Cre recombinase monomer with Q311R mutation (protein)
chain: MSNLLTVHQNLPALPVDATSDEVRKNLMDMFRDRQAFSEHTWKMLLSVCRSWAAWCKLNNRKWFPAEPEDVRDYLLYLQARGLAVKTIQQHLGQLNMLHRRSGLPRPSDSNAVSLVMRRIRKENVDAGERAKQALAFERTDFDQVRSLMENSDRCQDIRNLAFLGIAYNTLLRIAEIARIRVKDISRTDGGRMLIHIGRTKTLVSTAGVEKALSLGVTKLVERWISVSGVADDPNNYLFCRVRKNGVAAPSATSQLSTRALEGIFEATHRLIYGAKDDSGQRYLAWSGHSARVGAARDMARAGVSIPEIMRAGGWTNVNIVMNYIRNLDSETGAMVRLLEDGD
Median dimer activity (recombination on loxP) [1]: 95%
Median dimer activity (recombination on loxP) [2]: 92%
Median dimer activity (recombination on loxP) [3]: 85%
Median dimer activity (recombination on loxP) [4]: 81%
Median dimer activity (recombination on loxP) [5]: 93%
Median dimer activity (recombination on loxP) [6]: 66%
Median dimer activity (recombination on loxP) [7]: 96%
Median dimer activity (recombination on loxP) [8]: 61%
